Test results published in paper PMC11096006 (Immunity, 2024).

Target: Linear di-ubiquitin (UniProt P0CG48 1-76; P0CG48 1-76)
Assay: crystal structure

B1: N4BP1 CUE-like domain (Q845-D893) (domain or fragment, UniProt Q6A037 845-893, looked up)
chain: QRSSAETSELREALLKIFPDSEQKLKIDQILAAHPYMKDLNALSALVLD
B1: binds.
